First the molecules themselves.
B1: DB-Fos (fusion protein between the DNA-binding domain of the Gal4 protein and a fragment of the human Fos protein, amino acids 132 to 211) (other, S. cerevisiae;human, UniProt P04386 1-147, looked up)
chain: MKLLSSIEQACDICRLKKLKCSKEKPKCAKCLKNNWECRYSPKTKRSPLTRAHLTEVESRLERLEQLFLLIFPREDLDMILKMDSLQDIKALLTGLFVQDNVNKDAVTDRLASVETDMPLTLRQHRISATSSSEESSNKGQRQLTVSLSPEEEEKRRIRRERNKMAAAKCRNRRRELTDTLQAETDQLEDEKSALQTEIANLLKEKEKLEFILAAHRPACKIPDDLG
notes: Control fusion in the yeast two-hybrid test; also called DE-Fos; pPC76 product
B3: TA-C-mbp1 (C-terminal part of murine MBP1 fused with the transcription activating domain of Gal4) (other, not shown: large carriers)
chain: CTCPDGYRKIGPECVDIDECRYRYCQHRCVNLPGSFRCQCEPGFQLGPNNRSCVDVNECDMGAPCEQRCFNSYGTFLCRCNQGYELHRDGFSCSDIDECGYSSYLCQYRCVNEPGRFSCHCPQGYQLLATRLCQDIDECETGAHQCSEAQTCVNFHGGYRCVDTNRCVEPYVQVSDNRCLCPASNPLCREQPSSIVHRYMSITSERSVPADVFQIQATSVYPGAYNAFQIRSGNTQGDFYIRQINNVSAMLVLARPVTGPREYVLDLEMVTMNSLMSYRASSVLRLTVFVGAYTF
notes: Library clone from mouse embryo cDNA library pPC67; also called product of plasmid TA-C-MBP1
B4: TA-C-fibulin2 (C-terminal part of murine fibulin 2, amino acids 863 to 1195, fused with the transcription activating domain of Gal4) (other, not shown: large carriers)
chain: EGSECVDVNECETGVHRCGEGQLCYNLPGSYRCDCKPGFQRDAFGRTCIDVNECWVSPGRLCQHTCENTPGSYRCSCAAGFLLAADGKHCEDVNECETRRCSQECANIYGSYQCYCRQGYQLAEDGHTCTDIDECAQGAGILCTFRCVNVPGSYQCACPEQGYTMMANGRSCKDLDECALGTHNCSEAETCHNIQGSFRCLRFDCPPNYVRVSQTKCERTTCQDITECQTSPARITHYQLNFQTGLLVPAHIFRIGPAPAFAGDTISLTITKGNEEGYFVTRRLNAYTGVVSLQRSVLEPRDFALDVEMKLWRQGSVTTFLAKMYIFFTTFAP
notes: also called product of plasmid TA-C-FIB2

Experiment [1] concerns the target B3. As to the kind of experiment: yeast two-hybrid, strain YCM17, URA3 and LacZ reporters. Here is the method:
(§1) After the cotransformation, the various clones obtained were tested for the phenotypes associated with the URA3 and LacZ genes.

The target of experiment [2] is B4. Described as above. As to the method: as §1
Experiment [3] addresses T1, DB-C-mbp1 (C-mbp1 fused with the DNA-binding domain of Gal4) (S. cerevisiae; murine, UniProt P04386 1-147).
T1 construct: also called DB-C-mbpl; product of plasmid DB-C-MBP1
The experiment is described as follows: yeast two-hybrid, strain PCY2, LacZ reporter.

Experiment [4] concerns the target T2, DB-C-fibulin2 (C-fibulin2 fused with the DNA-binding domain of Gal4) (S. cerevisiae; murine, UniProt P04386 1-147, limits assumed).
T2 construct: also called product of plasmid DB-C-FIB2
As to the kind of experiment: yeast two-hybrid, strain PCY2, LacZ reporter.

Experiment [5] deals with T3, DB-wt (fragment 73-393 of wild-type human p53 fused with the DNA-binding domain of Gal4) (S. cerevisiae; human, UniProt P04386 1-147; P04637 73-393).
T3 construct: Yeast two-hybrid fusion; also called 73-393 wt in pPC97
The experiment is described as follows: yeast two-hybrid, strain YCM17, URA3 and LacZ reporters. Here is the method:
as §1

Experiment [6] deals with B1. Described as above. Here is the method: as §1
Experiment [7] has as its target T4, DB protein (DNA-binding domain of Gal4 alone, plasmid pPC97) (S. cerevisiae, UniProt P04386 1-147).
T4 construct: Empty-vector control of the two-hybrid tests
The description is as above. As to the method:
as §1

For B1, the binding result in experiment [1] and in experiment [2] was “no binding” each time.

B2: TA (transcription activating domain of Gal4 alone, plasmid pPC86) (other, S. cerevisiae, UniProt P04386 768-881, looked up)
chain: ANFNQSGNIADSSLSFTFTNSSNGPNLITTQTNSQALSQPIASSNVHDNFMNNEITASKIDDGNNSKPLSPGWTDQTAYNAFGITTGMFNTTTMDDVYNYLFDDEDTPPNPKKE
notes: Empty-vector control of the two-hybrid tests
As to B2, the binding result in experiment [3], in experiment [4], in experiment [5], in experiment [6] and in experiment [7] was “no binding” each time.
As for B3, in experiment [5], the binding result is on record as “no binding”.
On to B4, for which the binding result in experiment [5] is recorded as “no binding”.
